Blank lines part the entries; values can stand above or below the binder they belong to.
Key:
[1] = target: T1, prostate specific membrane antigen (PSMA) on prostate cancer cells (human, UniProt Q04609 1-750); assay: flow cytometry on MDA PCa 2b cells (PSMA-expressing), FITC anti-human IgG detection
T1 construct: whole, on cells; Printed expression order: MDA PCa 2b > LNCaP > 22Rv1; also called glutamate carboxypeptidase II (GCPII); FOLH1

[2] = target: T1, prostate specific membrane antigen …; assay: flow cytometry on 22Rv1 cells, FITC anti-human IgG secondary
Procedure: (§1) In this experiment, fluorescence signals of antibodies on the cell surface were detected, and the binding of the antibodies was evaluated according to the intensity of the fluorescence signals.
(§2) The cells were incubated with an FITC-labeled goat anti-human IgG (H+L) secondary antibody (Jackson Immuno Research, 109-095-003) at 4° C. for 30 min, and then excess antibodies were washed off. The fluorescence signals on the cell surface were read using BD CantoII. The results are shown in Table 2, FIG. 1A, FIG. 1B, FIG. 1C, FIG. 1D, and FIG. 1E.

[3] = target: T1, prostate specific membrane antigen …; assay: flow cytometry on MDA PCa 2b cells, FITC anti-human IgG secondary
Procedure: as §1, §2

[4] = target: T1, prostate specific membrane antigen …; assay: cell-based or functional assay
[5] = target: T1, prostate specific membrane antigen …; assay: flow cytometry on LNCaP cells, FITC anti-human IgG secondary
Procedure: as §1, §2

T1 sequence (Q04609 whole entry): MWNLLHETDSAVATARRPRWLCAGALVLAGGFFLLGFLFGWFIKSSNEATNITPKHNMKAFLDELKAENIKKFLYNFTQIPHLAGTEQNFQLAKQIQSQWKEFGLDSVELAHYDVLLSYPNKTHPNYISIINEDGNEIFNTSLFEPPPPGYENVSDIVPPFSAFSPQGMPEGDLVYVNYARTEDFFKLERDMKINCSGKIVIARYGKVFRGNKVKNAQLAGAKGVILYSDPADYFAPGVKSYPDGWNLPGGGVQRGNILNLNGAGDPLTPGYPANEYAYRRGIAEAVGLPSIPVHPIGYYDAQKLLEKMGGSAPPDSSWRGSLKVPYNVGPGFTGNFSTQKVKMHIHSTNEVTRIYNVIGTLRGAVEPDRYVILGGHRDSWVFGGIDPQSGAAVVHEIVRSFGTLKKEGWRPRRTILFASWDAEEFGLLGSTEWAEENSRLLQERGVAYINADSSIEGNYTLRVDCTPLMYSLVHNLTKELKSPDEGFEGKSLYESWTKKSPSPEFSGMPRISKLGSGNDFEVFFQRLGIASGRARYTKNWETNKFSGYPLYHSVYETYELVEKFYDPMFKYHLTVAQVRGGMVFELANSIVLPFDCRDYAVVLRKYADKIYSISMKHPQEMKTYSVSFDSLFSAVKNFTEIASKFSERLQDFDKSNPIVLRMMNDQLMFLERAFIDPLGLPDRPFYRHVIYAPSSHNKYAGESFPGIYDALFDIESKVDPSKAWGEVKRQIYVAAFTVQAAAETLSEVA

B3: ADC-2 (exemplary product of the conjugate of formula PM-9-A, n=6.63) (antibody, V domains shown)
VH: QVQLVESGGGVVQPGRSLRLSCAASGFAFSRYGMHWVRQAPGKGLEWVAVIWYDGSNKYYADSVKGRFTISRDNSKNTQYLQMNSLRAEDTAVYYCARGGDFLYYYYYGMDVWGQGTTVTVSS
VL: DIQMTQSPSSLSASVGDRVTITCRASQGISNYLAWYQQKTGKVPKFLIYEASTLQSGVPSRFSGGGSGTDFTLTISSLQPEDVATYYCQNYNSAPFTFGPGTKVDIKR
modifications: drug-linker compound 9-A coupled via a mercapto group on cysteine after TCEP reduction; positions not given; mean n=6.63 per antibody (UV-Vis); drug-linker compound 9-A (exatecan analog with linking unit) coupled via a mercapto group on cysteine after TCEP reduction; positions not given; mean n=6.63 per antibody (UV-Vis)
notes: also called PSMA ADC
EC50 [2]: 0.571 nM | EC50 [3]: 0.718 nM | EC50 [5]: 0.938 nM

B4: ADC-10 (exemplary product of the conjugate of formula PM-VcMMAE, n=3.92) (antibody, V domains shown)
VH: B3 VH
VL: B3 VL
modifications: VcMMAE coupled via a mercapto group on cysteine after TCEP reduction; positions not given; mean n=3.92 per antibody (CE-SDS); VcMMAE (CAS 646502-53-6) coupled via a mercapto group on cysteine after TCEP reduction; positions not given; mean n=3.92 per antibody (CE-SDS)
notes: also called positive ADC-10
EC50 [2]: 0.689 nM | EC50 [3]: 0.954 nM | EC50 [5]: 1.58 nM

More lines, main results first:

binding result [1]: no binding
B1: Lmab-9-A (control antibody-drug conjugate of labeuzumab with compound 9-A, n=7.07) (antibody, human IgG1, kappa, V domains shown)
VH: EVQLVESGGGVVQPGRSLRLSCSASGFDFTTYWMSWVRQAPGKGLEWIGEIHPDSSTINYAPSLKDRFTISRDNAKNTLFLQMDSLRPEDTGVYFCASLYFGFPWFAYWGQGTPVTVSS
VL: DIQLTQSPSSLSASVGDRVTITCKASQDVGTSVAWYQQKPGKAPKLLIYWTSTRHTGVPSRFSGSGSGTDFTFTISSLQPEDIATYYCQQYSLYRSFGQGTKVEIKR
modifications: drug-linker compound 9-A coupled to cysteine after TCEP reduction; positions not given; mean n=7.07 per antibody (UV-Vis)
notes: also called control ADC Lmab-9-A; ADCLmab-9-A

EC50 [2]: 0.676 nM | EC50 [3]: 1.08 nM | EC50 [5]: 1.42 nM
B2: Antibody PM (intact full-length anti-PSMA antibody PM, variable regions of AB-PG1-XG1-006) (antibody, V domains shown)
VH: B3 VH
VL: B3 VL
notes: Full-length IgG1/kappa (VH-CH1-Fc/VK-CL), expressed in HEK293E cells; also called AB-PG1-XG1-006 (variable regions)
Endocytic activity of different cells to the antibodies (IC50, nM); DT3C-mediated cell killing, 22RV1 cells [4]: 0.0856 nM
